Experiments:
Test in all cases: PD-L1 western blot after modulators (EM and MTAs)
Assay type in all cases: cell-based, human
A253 cells = conditions: Head and neck A253, 30 minutes, 3 hours, 24 hours
From the text: (§1) Cell lines were acquired from ATCC, Sigma, or DSMZ. Human non-small cell lung carcinoma (NSCLC) cell lines H292 (ATCC no. CRL-1848.), H1299 (ATCC no. CRL-5803), H520 (ATCC no. CRL-5811), CALU6 (ATCC no. HTB-56), H1975 (ATCC no. CRL-5908), H460 (ATCC no. HTB-177), H2126 (ATCC no. CCL-256), H1650 (ATCC no. CRL-5883), and H2087 (ATCC no. CRL-5922) were used for this experiment along with head and neck squamous cell carcinoma (HNSCC) cell lines BHY (DSMZ ACC 404), CAL27 (ATCC no. CRL-2095), KYSE410 (Sigma), and A253 (ATCC no. HTB-41), melanoma cell lines A375 (ATCC no. CRL-1619), COL0853 (Sigma), and MM127 (Sigma) pancreatic cancer cell lines BXPC3 (ATCC no. CRL-1687), colorectal cancer cell lines […], HCT116 (ATCC no. CCL-247EMT), and breast cancer cell lines BT549 (ATCC no. HTB-122), BT20 (ATCC no. HTB-19), and T47D (ATCC no. HTB-133). Cells were maintained in manufacturer-recommended conditions at 37° C. inside humidified 5% CO2 incubators. Sub-cultivation and harvesting for all cell lines were performed using Accutase (GIBCO Life Technologies; cat. no. A1110501) at 37° C. for 10 minutes. Cell viability was measured using trypan blue exclusion staining in conjunction with the Countess II Automated Cell Counter (Thermo Fischer Scientific; cat. no. AMQAX1000). Measurements were made in duplicate and the average number of viable cells was recorded prior to experiments.
(§2) Enhancer Molecule and Therapies: IFNγ, (10 ng/ml; Sigma Aldrich, cat.no 11040596001), TNFα (10 ng/ml; BD Biosciences cat. no. 554618), Osimertinib (100 ng/ml; Selleckchem cat.no. S7297), Everolimus (100 ng/ml; Selleckchem cat.no S1120), GSK458 (10 ng/ml; Selleckchem cat. no. S2658), TNFb (50 ng/ml; Sigma Aldrich cat. no.), GSK795 (1,000 ng/ml; Selleckchem cat. no. S7492), IL-12 (50 ng/ml; Sigma Aldrich SRP3073), GM-CSF (50 ng/ml; Sigma Aldrich cat. no. G5035), IL-1a (1 ng/ml; Sigma Aldrich cat. no. 12778-), IL-6 (50 ng/ml; Sigma Aldrich), IL-17 (100 ng/ml; Sigma Aldrich cat. no. SRP3080), TGFb (1 ng/ml; Sigma Aldrich cat. no. T7039), and IL-10 (50 ng/ml; Sigma Aldrich cat. no. SRP3071) were administered to cell lines for various times including 30 minutes, 3 hour, and 24 hour time intervals prior to cell lysis and protein extraction.
(§3) To determine the effects of the aforementioned molecules on the modulation of PD-L1, we selected various NSCLC, HNSCC, breast cancer, melanoma, colorectal cancer, and pancreatic cancer cell lines as examples. Other diseases or cell lines could be used readily as could more complex samples such as cells isolated from xenografts and clinical samples. Cells were plated, for three different time points (30 minutes, 3 hours, and 24 hours), inside 6-well petri dishes with 2 mL of appropriate medium. Plates were incubated for 24 hours in 5% CO2 incubators at 37° C. After 24 hours, each 6-well plate was washed with PBS (Gibco Life Technologies, cat. no. 10010023) followed by fresh media being added along with each cell line's vehicle control or appropriate modulator for each specific time point, and were placed in CO2 incubators until their modulation time point was reached. Other conditions can be readily used, such as processing on automated systems such as SnapPath. At the end of each time point, while keeping plates on ice, cell lysis was conducted by aspirating culture medium from each plate, washing of each plate three times with 5 ml of cold PBS (Gibco Life Technologies, cat. no. 10010023) and culminated with the addition of cold 1× lysis buffer containing (Cell Signaling, cat. no. 9803 S) protease inhibitor cocktail (Cell Signaling, cat. no. 5871S), phosphatase inhibitor cocktail (Cell Signaling, cat. no. 5870S), and PMSF (Fisher Scientific, cat. no. ICN19538101). Plates were then placed on ice for ten minutes, swirling each plate intermittently. Aliquots of protein lysates were prepared and then stored at −80° C. until protein quantification and Western blot analysis was to be conducted. […]

A375 cells = conditions: Melanoma A375, 30 minutes, 3 hours, 24 hours
From the text: as §1, §2, §3

BHY cells = conditions: Head and neck BHY, 30 minutes, 3 hours, 24 hours
From the text: as §1, §2, §3

BT20 cells = conditions: Breast BT20, 30 minutes, 3 hours, 24 hours
From the text: as §1, §2, §3

BxPC3 cells = conditions: Pancreatic BxPC3, 30 minutes, 3 hours, 24 hours
From the text: as §1, §2, §3

CAL27 cells = conditions: Head and neck CAL27, 30 minutes, 3 hours, 24 hours
From the text: as §1, §2, §3

Calu6 cells = conditions: NSCLC Calu6, 30 minutes, 3 hours, 24 hours
From the text: as §1, §2, §3

H1299 cells = conditions: NSCLC H1299, 30 minutes, 3 hours, 24 hours
From the text: as §1, §2, §3

H1975 cells = conditions: NSCLC H1975, 30 minutes, 3 hours, 24 hours
From the text: as §1, §2, §3

H2087 cells = conditions: NSCLC H2087, 30 minutes, 3 hours, 24 hours
From the text: as §1, §2, §3

H520 cells = conditions: NSCLC H520, 30 minutes, 3 hours, 24 hours
From the text: as §1, §2, §3

KYSE410 cells = conditions: Head and neck KYSE410, 30 minutes, 3 hours, 24 hours
From the text: as §1, §2, §3

Measured: PD-L1 Response

B1: IFNγ: human IFNγ, modulator (10 ng/ml; Sigma Aldrich) (protein, UniProt P01579 24-161, looked up)
Interferon gamma: QDPYVKEAENLKKYFNAGHSDVADNGTLFLGILKNWKEESDRKIMQSQIVSFYFKLFKNFKDDQSIQKSVETIKEDMNVKFFNSNKKKRDDFEKLTNYSVTDLNVQRKAIHELIQVMAELSPAAKTGKRKRSQMLFRG
Up: A253 cells | A375 cells | BHY cells | BT20 cells | BxPC3 cells | CAL27 cells | Calu6 cells | H1299 cells | H1975 cells | H2087 cells | H520 cells | KYSE410 cells
